The values below come from patent publication US20120282637A1 (Sanofi, published 2012).

Values joined by “and” are separate entries in the source; they are usually repeats but may differ in a detail not shown here. Identical values can stand only once.

Usually IC50 stands for the concentration that gives 50% inhibition. A word on the Kd: it is the free concentration of one partner at which half of the binding sites on the other are occupied at equilibrium, for simple one-to-one binding. For orientation: koff means the first-order rate constant of dissociation. Lower therefore signals slow dissociation. Usually kon stands for the second-order rate constant of association.

In assay [1] the target is T1, RAGE-Fc (human, UniProt Q15109 23-344, limits assumed).
T1 construct: also called hRAGE; not shown: Fc part, detected with anti-hIgG Fc-specific conjugate
Briefly: competition ELISA, RAGE-S100A6 interaction. (An ELISA detects its analyte on a solid surface through an enzyme-linked reagent.)

Assay [2] addresses T1, RAGE-Fc. Briefly: competition ELISA, hRAGE-S100A6 interaction.
The target of assay [3] is T1, RAGE-Fc. Briefly: competition ELISA, RAGE-Fc binding to coated S100A6. Here is the method:
(§1) For the S100A6 Competition ELISA Assay wells have been coated with S100A6 at 0.5 μg/well. Thereafter, RAGE-Fc at 10 μg/mL and competing mAb at 10 μg/mL have been pre-incubated at room temperature for 30 min. The mixture was transferred into S100A6-coated plates and incubated under agitation at room temperature for 2 hours. Bound RAGE-Fc was detected with anti-hIgG Fc-specific-POD using TMB (3, 3′, 5, 5′-Tetramethylbenzidine) at 450 nm.
For this, coating with S100A6 was carried out as detailed above. RAGE-Fc at 10 μg/mL was incubetd with competing mAb (2-fold serial dilutions starting at 100 μg/ml at room temperature for 2 hours. Binding was detected by anti IgG Fc-specific antibody peroxydase conjugate using TMB1 component HRP at 450 nm.

Assay [4] has as its target T1, RAGE-Fc. Briefly: competition ELISA against S100A6, mAb 10 µg/mL. Here is the method: as §1
The target in another assay is mouse sRAGE (mouse, UniProt Q62151 23-340, limits assumed). The assay is described as follows: ELISA, O.D. 450 nm, one bar per species; plate format and antibody concentration not given.
The target of the next assay is rat sRAGE (rat, UniProt Q63495 23-341, limits assumed). The description is as above.
The target of a further assay is T2, RAGE C2 domain (UniProt Q15109 235-327, limits assumed).
T2 construct: domain: C2 domain
Briefly: domain mapping, Table 1.

The target in the next assay is T3, RAGE V domain (UniProt Q15109 23-121, limits assumed).
T3 construct: domain: V domain
The assay is described as follows: domain mapping, Table 1.

The target of assay [5] is T1, RAGE-Fc. Briefly: competition ELISA, hRAGE-S100B interaction.
Assay [6] has as its target T4, sRAGE (V-C1-C2) lot LP08062 (human, UniProt Q15109 23-331, limits assumed).
T4 construct: domain: V-C1-C2; also called Human RAGE; LP08062 (Rage)
The assay is described as follows: SPR (Biacore), mAb captured on anti-mouse Fc, sRAGE 15 nM, Langmuir 1:1. Here is the method: The assay is based on a capture assay using immobilized anti-mouse Fc IgG on CM5 chip. For immobilization of anti-Fc antibody HBS-EP was used as running buffer. Standard amine coupling to a CM5 chip was carried out at a contact time of 11 min and a flow rate of 10 μl/min. 10 mM Sodium Acetate pH 5.0 was used as immobilization buffer. The protein concentration (anti-mouse Fc, Biacore BR-1008-38) was 100 μg/mL.
For binding analysis SN anti-RAGE mAb diluted in running buffer at 1/10 (flow rate 5 μl/min) and sRAGE (V-C1-C2) lot LP08062 diluted in running buffer at 15 nM (flow rate 50 μl/min) was used as […], respectively (running buffer: HBS-P+BSA 12 mg/mL+CM Dextran 12 mg/mL and Regeneration solution: 10 mM Glycine pH 1.7). Langmuir 1:1 analysis was used as fitting model.
(In general: Surface plasmon resonance follows binding to a sensor surface in real time, without labels.)

For assay [7], the target named is T1, RAGE-Fc. The assay is described as follows: competition ELISA, RAGE-S100B interaction.

T2 sequence (Q15109 235-327 limits assumed): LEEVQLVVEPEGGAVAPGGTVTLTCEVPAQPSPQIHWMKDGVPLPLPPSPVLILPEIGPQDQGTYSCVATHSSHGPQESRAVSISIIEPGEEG
T3 sequence (Q15109 23-121 limits assumed): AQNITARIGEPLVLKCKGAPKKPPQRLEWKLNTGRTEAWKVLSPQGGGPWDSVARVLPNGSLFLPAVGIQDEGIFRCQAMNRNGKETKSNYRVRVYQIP
T4 sequence (Q15109 23-331 limits assumed): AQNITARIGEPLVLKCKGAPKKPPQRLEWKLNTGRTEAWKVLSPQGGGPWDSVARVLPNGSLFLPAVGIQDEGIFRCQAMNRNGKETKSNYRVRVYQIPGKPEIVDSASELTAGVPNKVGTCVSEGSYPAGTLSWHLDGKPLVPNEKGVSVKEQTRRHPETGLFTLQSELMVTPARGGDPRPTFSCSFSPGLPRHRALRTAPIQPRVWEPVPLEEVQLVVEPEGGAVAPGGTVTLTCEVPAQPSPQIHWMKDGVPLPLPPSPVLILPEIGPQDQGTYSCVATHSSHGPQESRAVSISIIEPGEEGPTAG
T1 sequence (Q15109 23-344 limits assumed): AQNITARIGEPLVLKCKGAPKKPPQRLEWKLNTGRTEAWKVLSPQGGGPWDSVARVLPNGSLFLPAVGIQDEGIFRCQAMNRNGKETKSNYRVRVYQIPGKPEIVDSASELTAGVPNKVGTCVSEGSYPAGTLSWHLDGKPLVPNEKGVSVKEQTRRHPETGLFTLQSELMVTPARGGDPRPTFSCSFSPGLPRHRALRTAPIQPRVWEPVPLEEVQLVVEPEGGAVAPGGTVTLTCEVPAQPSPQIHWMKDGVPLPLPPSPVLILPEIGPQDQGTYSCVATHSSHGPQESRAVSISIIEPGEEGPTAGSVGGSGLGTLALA
Sequence of rat sRAGE (Q63495 23-341 limits assumed): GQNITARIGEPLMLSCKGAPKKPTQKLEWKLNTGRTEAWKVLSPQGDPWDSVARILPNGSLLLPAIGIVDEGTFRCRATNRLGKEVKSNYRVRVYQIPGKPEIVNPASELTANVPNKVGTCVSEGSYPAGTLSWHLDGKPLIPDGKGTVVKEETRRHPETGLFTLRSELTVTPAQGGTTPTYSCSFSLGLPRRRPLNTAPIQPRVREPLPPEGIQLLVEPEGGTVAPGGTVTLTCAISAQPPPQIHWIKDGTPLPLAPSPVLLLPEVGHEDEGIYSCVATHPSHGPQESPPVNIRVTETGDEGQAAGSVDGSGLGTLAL
Sequence of mouse sRAGE (Q62151 23-340 limits assumed): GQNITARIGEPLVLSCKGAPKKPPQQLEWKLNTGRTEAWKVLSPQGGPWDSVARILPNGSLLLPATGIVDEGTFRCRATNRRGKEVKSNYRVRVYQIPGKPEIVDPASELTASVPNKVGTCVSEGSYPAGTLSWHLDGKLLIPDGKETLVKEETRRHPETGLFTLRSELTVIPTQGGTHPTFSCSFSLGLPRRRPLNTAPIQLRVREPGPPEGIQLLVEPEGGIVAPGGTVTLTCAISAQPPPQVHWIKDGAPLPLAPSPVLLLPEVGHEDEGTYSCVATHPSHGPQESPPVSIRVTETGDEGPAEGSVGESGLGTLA

B1: 166 RAGE-1 (antibody, V domains shown)
VH: QVQLQQSGPELVKPGTSVRISCKASGYTFTSYYIHWVKQRPGQGLEWIGWIYPGNVITNYHEKFKGKASLTADKSSSTAYMQLSSLTSEDSAVYFCAREDPFAYWGQGTLVTVSA
VL: NIMMTQSPSSLAVSAGEKVTMSCKSSQSVLYSSNQKNYLAWYQQKPGQSPKLLIYWASTRESGVPDRFTGSGSGTDFTLTISSVQAEDLAVYYCHQYLSSYTFGGGTKLEIK
notes: Anti-RAGE monoclonal antibody from a hybridoma, captured by anti-mouse Fc; also called LP08122; LP08122D
For the molecule B1, the IC50 came to 55500 pM in the assay with RAGE-Fc [1], 8.33 µg/mL with RAGE-Fc [3], 0.128 µg/mL with RAGE-Fc [5] and 800 pM in the assay with RAGE-Fc [7]. In the assay with RAGE-Fc [2], this molecule gave a maximum inhibitory effect of at most 50%. The inhibitory effect in the assay with RAGE-Fc [4] is above 20%. Besides, the binding result with mouse sRAGE is “no binding (tested: not given)”; with rat sRAGE it was “no binding (tested: not given)”; with RAGE C2 domain, “no binding”; in the assay with RAGE V domain it was “no binding”. Moreover, the dissociation constant Kd in [6] was 234 pM. Besides, in assay [6], the koff is 0.000758 s⁻¹. The molecule also had a kon in [6] of 3.24e+06 M⁻¹ s⁻¹.

B2: 253 RAGE-1 (antibody, V domains shown)
VH: QVQLQQSGPELVKPGASVRISCKASGYTFTDYYIHWVKQRPGQGLEWIGWIYPGNVITKYNEKFKGKATLTADKSSSTAYMQLSSLTSEDSAVYFCARYDYDYAMDYWGQGTSVTVSS
VL: DIVMSQSPSSLAVSVGEKVTMSCKSSQTLLYSSNQKNYLAWYQQKPGQSLKLLIYWASTRESGVPDRFAGSGSGTDFTLTISSVKAEDLAVYYCQQYFGYPYTFGGGTKLEIK
notes: Anti-RAGE monoclonal antibody from a hybridoma, captured by anti-mouse Fc; also called LP08127
As to B2, the binding result in the assay with RAGE C2 domain and with RAGE V domain was “no binding” throughout. Besides, the results for the IC50 with RAGE-Fc [5] and in the assay with RAGE-Fc [7] were 0.108 µg/mL and 700 pM, respectively. Moreover, in [6], the Kd was determined as 512 pM. The koff in assay [6] came to 0.00199 s⁻¹. In addition, the kon in assay [6] was 3.89e+06 M⁻¹ s⁻¹.

B3: 326 RAGE-1 (antibody, V domains shown)
VH: EVKLVESGGGLVKPGGSLKLSCAASGFAFSSYDMSWVRQTPEKRLEWVATISSGGSYTSYPDSVQGRFTISRDNARNTLYLQMSSLRSEDTALYYCASSQLPPYAMDYWGQGTSVTVSS
VL: DIVMTQSQKFMSTSVGDRVSITCKASQNVGTAVAWYQQKPGQSPKLLIYSASNRYTGVPDRFTGSGSGTDFTLTISNMQSEDLADYFCQQYSSYPLLTFGAGTKLELK
notes: Anti-RAGE monoclonal antibody from a hybridoma, captured by anti-mouse Fc; also called LP08137; Protein 326 RAGE-1
With B3, the binding result is recorded as “no binding (tested: not given)” with mouse sRAGE, “no binding (tested: not given)” with rat sRAGE, “no binding” in the assay with RAGE C2 domain and “no binding” with RAGE V domain. For the same molecule, the IC50 with RAGE-Fc [5] is 0.097 µg/mL and 0.64 nM; with RAGE-Fc [7], 600 pM. In assay [6], this molecule yielded a Kd of 596 pM. The koff in assay [6] was 0.00171 s⁻¹. This molecule gave a kon in assay [6] of 2.87e+06 M⁻¹ s⁻¹.

B4: 152 RAGE-1 (antibody, V domains shown)
VH: DVQLQESGPDLVKPSQSLSLTCTVTGYSITSGYSWHWIRQFPGNKLEWMGYIHYSGSTNYNPSLKSRISITRDTSKNQFFLQLNSVTTEDTATYYCARGGDFAYWGQGTLVTVSA
VL: DIVLTQSPASLAVSLGQRATISCRASKSVGTSDSSYMHWYQQKPGQPPKLLIYLASNLESGVPARFSGSGSGTDFTLNIHPVEEEDAATYYCQHSRELYTFGGGTKLEIK
notes: Anti-RAGE monoclonal antibody from a hybridoma, captured by anti-mouse Fc; also called LP08104; Protein 152 RAGE-1
As to B4, the inhibitory effect in the assay with RAGE-Fc [4] was above 20%. Also, the binding result with RAGE C2 domain is listed as “no binding”. In [6], this molecule showed a Kd of 687 pM, a koff of 0.00265 s⁻¹ and a kon of 3.86e+06 M⁻¹ s⁻¹.
